Measurements as given in PMC9142594.

Legend:
Test in all cases: SPR; Biacore T200; His-tagged histones immobilised on sensor chip NTA; AGEs at 6.25, 12.5, 25, 50 and 100 µg/ml, single-cycle kinetics; 10 mM HEPES, 150 mM NaCl, 0.05% Tween-20; 25 °C; 30 µl/min
[1] = target: His-tagged human histone H3 (human) (UniProt P68431)
[2] = target: His-tagged human histone H2B (human) (UniProt P06899)
[3] = target: His-tagged human histone H2A (human) (UniProt P04908)

“advanced glycation end products (AGEs): bovine serum albumin modified with dehydroascorbic acid (DHA) (from UniProt P02769 25-607) (ligand)” was tested, and the Kd [1] was 96.5 nM, the Kd [2] was 67.2 nM and the Kd [3] was 85.5 nM.
